Measured values taken from patent US8598081B2, “Specific delivery of agrochemicals” (priority 2010, dated 2013).

B1: VHH 3E6: VHH binding gum arabic, potato lectin and leaf surface; SEQ ID NO:7 by order of the list (protein, listed as Lama glama)
VHH: QVQLQESGGGLVQPGGTLSLSCAASGFNVRWYGMGWFRQAPGKEREGVACISALQETTAYADSVKGRFTLSRDNPKNTLSLQMNNLQPEDTGVYYCATTDCDDSSRMTYTSYLGQGTQVTVSS
modifications: 3E6
B2: Microcapsules containing uvitex OB VHH 3E6: polyurea microcapsules containing the fluorescent tracer Uvitex OB, coupled with (monovalent) VHH 3E6 (conjugate)
VHH: B1 VHH
modifications: left off: small tags and cut ends
notes: polyurea microcapsules containing the fluorescent tracer Uvitex OB, coupled with (monovalent) VHH 3E6

Key:
[1] = system: potato leaf discs; assay: VHH binding at different pH, leaf dip experiment; design: species or system potato (variety Desiree); conditions: whole range tested from pH 2 to pH 11; 5 μg/ml; 1 hour
Procedure: In order to test applicability of VHH as binders for greenhouse or field applications where binding supposedly may occur at pH-values, deviating strongly from physiological conditions in which antibodies naturally bind their targets, a leaf dip VHH binding experiment was carried out in a series of solutions with different pH. The following solutions were prepared: 50 mM glycine pH 2.0, 50 mM sodium acetate pH 4.0, 50 mm sodium carbonate pH 9.6, and 10 mM sodium hydroxide pH […] 8 mm potato leaf discs (variety Desiree) were cut using a puncher tool. The leaf discs were first equilibrated to the different pH by washing three times with solutions at different pH. Hexahistidine-tagged VHH were diluted to 5 μg/ml in solutions with different pH, added to the corresponding equilibrated leaf discs, and binding of VHH was allowed for 1 hour. After incubation with VHH, leaf discs were washed three times with solutions at the corresponding different pH. After that, all were washed two times with PBS to equilibrate leaf discs to PBS. Bound VHH were detected by incubation with monoclonal mouse anti-histidine antibodies directly conjugated with Alexa-488 fluorescent dye (Abd Serotec) in PBS for 1 hour. Unbound anti-histidine antibodies were removed by washing five times with PBS. Leaf discs were analyzed for bound VHH with microscopy.

[2] = system: leaf surface of potato leaves; assay: VHH binding to non-fixed leaf discs, potato; design: species or system potato (variety Desiree); conditions: 5 μg/ml, detection with anti-histidine Alexa-488
Procedure: (§1) VHH binding to non-fixed leaf discs of potato (variety Desiree), black nightshade, grass, wheat or azalea was investigated. For comparison, binding of CBM3a to non-fixed leaf discs of potato (variety Desiree) was analyzed in parallel. Leaf discs were prepared by punching a fresh potato leaf with a 5 mm belt hole puncher tool. Leaf discs were put immediately in wells of a 96-well plate containing 200 μl per well 5% MPBS or PBS, and incubated for 30 minutes. Leaf discs were transferred to solutions containing 5 μg/ml VHH antibody fragment, respectively, 5 μg/ml CBM3a in 2% MPBS or PBS and incubated for 60-90 minutes. Unbound VHH or CBM3a proteins were removed by washing three times with 2% MPBS or PBS. Bound VHH or CBM3a proteins were detected with incubation with monoclonal mouse anti-histidine antibodies directly conjugated with Alexa-488 fluorescent dye (Abd Serotec) in 1% MPBS for 1 hour. Unbound antibodies were removed by washing three times with PBS. Leaf discs were put on glass slides, covered with cover slips, and analyzed by microscopy or on a macrozoom microscope system (Nikon) or a SP5 confocal microscope system (Leica).

[3] = system: surface of black nightshade leaves; assay: VHH binding to non-fixed leaf discs, black nightshade; conditions: 5 μg/ml, detection with anti-histidine Alexa-488
Procedure: as §1

[4] = system: gum arabic; assay: VHH binding to gum arabic in ELISA; design: species or system acacia tree
Procedure: Titration of VHH antibody fragments was performed on ELISA plates (Maxisorp, Nunc) coated with 100 μl per well 100 μg/ml gum arabic in 50 mM carbonate pH 9.6. Plates were coated at 4° C. overnight and coating was continued at room temperature for 1 hour on the next day. Plates were washed three times with PBS/0.05%-TWEEN®-20 and blocked with 5% skimmed milk in PBS for 1 hour. Four-fold serial dilutions of purified VHH antibody fragments were prepared in 1% MPBS/0.05%-TWEEN®-20 in polypropylene 96-well plates. Antibody concentrations ranged from 3 μg/ml to 12 ng/ml. Antibody dilutions were transferred to the gum arabic-coated plates and VHH antibody fragments were allowed to bind for 1 hour at room temperature. Bound VHH were detected with sequential incubations with monoclonal mouse anti-histidine antibodies (Abd Serotec) and rabbit anti-mouse IgG whole molecule antibodies conjugated with alkaline phosphatase (RaM/AP) (Sigma) in 1% MPBS/0.05%-TWEEN®-20. Unbound antibodies were removed by washing three times with PBS/0.05%-TWEEN®-20 after each antibody incubation. The plates were washed an additional two times with PBS and 100 μl pNPP disodium hexahydrate substrate (Sigma) was added to each well. The absorbance at 405 nm was measured and plotted as function of antibody concentration (see Table 1).

[5] = system: intact living potato pot plants; assay: VHH binding to intact living plants; design: species or system potato (variety Desiree); conditions: in PBS; 1 hour; FIG. 2: 5 μg/ml
Procedure: Binding of VHH to intact living plants was investigated on potato pot plants (variety Desiree). Compound leaves of intact living plants were submersed in solutions of hexahistidine-tagged VHH in PBS, or PBS alone for control conditions, leaving the compound leaves attached to the plants. VHH were allowed to bind for 1 hour. Next, the compound leaves still attached to the plants were washed five times in PBS in Erlenmeyer flasks. Different leaves and petiole sections were sampled. Bound VHH were detected by incubation with monoclonal mouse anti-histidine antibodies directly conjugated with Alexa-488 fluorescent dye (Abd Serotec) in PBS for 1 hour. Unbound anti-histidine antibodies were removed by washing five times with PBS. Whole leaves, leaf discs, or petiole sections were analyzed for bound VHH with microscopy.

[6] = system: surface of grass leaves; assay: VHH binding to non-fixed leaf discs, grass; conditions: 5 μg/ml, detection with anti-histidine Alexa-488
Procedure: as §1

[7] = system: grass leaf discs; assay: Leaf disc binding assay with VHH-coupled microcapsules, grass; design: species or system Lollium perenne; conditions: Uvitex microcapsules
Procedure: (§2) A leaf disc binding assay was used to evaluate the interaction of VHH-coupled microcapsules with potato, grass and azalea leaves. ø 8 mm leaf discs were sampled from the leaves of potato pot plants (variety Desiree), from the leaves of greenhouse-grown Lollium perenne and from the leaves of azalea pot plants. Leaf discs were washed three times with PBS. Microcapsules containing lambda cyhalothrin or Uvitex were diluted to appropriate densities in 1% skimmed milk in PBS with 0.05%-TWEEN®-20. Microcapsules were added to the leaf discs and settling of microcapsules and binding of targeting agents allowed for 1 hour. Unbound microcapsules were removed by washing three to five times with PBS with 0.05%-TWEEN®-20.
(§3) Leaf discs with Uvitex microcapsules were analyzed for bound microcapsules on a macrozoom microscope system (Nikon). Microcapsules were counted using Volocity image analysis software (Perkin Elmer). A DAPI filter was used to visualize Uvitex microcapsules. Controls for Uvitex microcapsules included blank microcapsules to which no VHH were coupled and microcapsules to which unrelated VHH were coupled.

[8] = system: azalea leaf discs; assay: Leaf disc binding assay with VHH-coupled microcapsules, azalea; conditions: Uvitex microcapsules
Procedure: as §2, §3

| Molecule | binding to leaf discs at different pH [1] | binding to native potato leaf surface (fluorescence microscopy) [2] | binding to native potato leaf surface (fluorescence microscopy) ([2]; listed as 3E6) | binding to native black nightshade leaf surface (fluorescence microscopy) [3] | binding to native black nightshade leaf surface (fluorescence microscopy) ([3]; listed as 3E6) | absorbance at 405 nm ([4]; Table 2, gum arabic coating, VHH 3 μg/ml) | absorbance at 405 nm ([4]; [VHH] 3 μg/ml (200 nM), gum arabic − (well without gum arabic)) | binding to intact living plant (leaves attached to potato pot plant submerged in VHH solution) [5] | binding to native grass leaf surface (fluorescence microscopy) [6] | binding to native grass leaf surface (fluorescence microscopy) ([6]; listed as 3E6) | more microcapsules bound to leaf surfaces compared to blank microcapsules [7] | more microcapsules bound to leaf surfaces compared to microcapsules coupled with unrelated VHH [7] | specific binding of microcapsules to azalea leaf discs [8] |
| --- | --- | --- | --- | --- | --- | --- | --- | --- | --- | --- | --- | --- | --- |
| B1 | detectable binding | binding leaf surface, stomata, glandular trichomes, and leaf hairs | clearly binding to trichomes, stomata and cuticle | binding leaf surface, glandular trichomes, and leaf hairs | bind specifically | 0.882 | 0.090 | binding leaf surface, stomata, glandular trichomes, and leaf hairs | binding to leaf surface and wounded plant tissue | bind specifically |  |  |  |
| B2 |  |  |  |  |  |  |  |  |  |  | three-fold | two-fold | no specific binding |
